Source: patent US20060088524A1 (BOARD OF TRUSTEES OF THE UNIVERSITY OF ILLINOIS, published 2006)

T1: recombinant human tissue factor (rTF), membrane-anchored, HPC4-tagged, cytoplasmic domain truncated
T1 chain: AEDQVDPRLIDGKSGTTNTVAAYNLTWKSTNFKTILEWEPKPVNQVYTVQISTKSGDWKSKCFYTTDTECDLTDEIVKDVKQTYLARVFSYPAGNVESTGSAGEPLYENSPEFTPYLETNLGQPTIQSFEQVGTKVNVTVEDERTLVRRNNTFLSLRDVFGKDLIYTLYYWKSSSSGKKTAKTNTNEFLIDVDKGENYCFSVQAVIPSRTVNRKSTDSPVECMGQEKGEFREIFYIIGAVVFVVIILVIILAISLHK


How the values were obtained:
[1] = target: TF:VIIa complex (1:1 complex of rTF and factor VIIa on a phospholipid surface) (UniProt P08709)
[2] = target: T1, recombinant human tissue factor (rTF), …

Sequence of coagulation factor X (chain): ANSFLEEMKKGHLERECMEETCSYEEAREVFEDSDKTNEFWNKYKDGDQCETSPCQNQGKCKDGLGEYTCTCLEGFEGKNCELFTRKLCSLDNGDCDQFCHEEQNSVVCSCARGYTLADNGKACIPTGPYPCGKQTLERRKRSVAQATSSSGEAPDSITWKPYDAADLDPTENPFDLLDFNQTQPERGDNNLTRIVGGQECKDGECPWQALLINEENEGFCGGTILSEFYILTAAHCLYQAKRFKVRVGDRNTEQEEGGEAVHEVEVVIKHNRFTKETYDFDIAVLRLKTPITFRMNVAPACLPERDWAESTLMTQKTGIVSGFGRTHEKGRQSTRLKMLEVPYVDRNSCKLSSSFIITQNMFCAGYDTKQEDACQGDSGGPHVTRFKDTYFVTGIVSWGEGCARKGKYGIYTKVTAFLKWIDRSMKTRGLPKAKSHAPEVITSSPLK

| Molecule | Km for factor X activation; TF-Nanodiscs, 10% PS, 90% PC [1] [µM] | Km for factor X activation; TF-Nanodiscs, 20% PS, 80% PC [1] [µM] | Km for factor X activation; TF-Nanodiscs, 30% PS, 70% PC [1] [µM] | Km for factor X activation; TF-liposomes, 20% PS, 80% PC [1] [µM] | Km, app for factor X activation; rTF in PCPS vesicles [1] [µM] | Km, app for factor X activation; rTF-PCPS-nanoscale discs [1] [µM] | procoagulant activity (plasma clotting) of TF-containing nanoscale discs [2] |
| --- | --- | --- | --- | --- | --- | --- | --- |
| coagulation factor X | 0.132 | 0.0686 | 0.0452 | 0.0202 | 0.0202 | 0.0686 |  |
| coagulation factor VIIa (protein) ANAFLEELRPGSLERECKEEQCSFEEAREIFKDAERTKLFWISYSDGDQCASSPCQNGGSCKDQLQSYICFCLPAFEGRNCETHKDDQLICVNENGGCEQYCSDHTGTKRSCRCHEGYSLLADGVSCTPTVEYPCGKIPILEKRNASKPQGRIVGGKVCPKGECPWQVLLLVNGAQLCGGTLINTIWVVSAAHCFDKIKNWRNLIAVLGEHDLSEHDGDEQSRRVAQVIIPSTYVPGTTNHDIALLRLHQPVVLTDHVVPLCLPERTFSERTLAFVRFSLVSGWGQLLDRGATALELMVLNVPRLMTQDCLQQSRKVGDSPNITEYMFCAGYSDGSKDSCKGDSGGPHATHYRGTWYLTGIVSWGQGCATVGHFGVYTRVSQYIEWLQKLMRSEPRPGVLLRAPFP |  |  |  |  |  |  | the resultant discs exhibit strong procoagulant activity |
